Values belong to the molecule of their own block, whether it stands above or below them.
Experiments:
Test in all cases: cross-linking
[1] = molecular target: H3 (Drosophila (endogenous in S2 cells)) (UniProt P02299)
[2] = molecular target: T1, endogenous CID (Drosophila (endogenous in S2 cells)), Q9V6Q2; details: remark: other sources report otherwise
T1 chain: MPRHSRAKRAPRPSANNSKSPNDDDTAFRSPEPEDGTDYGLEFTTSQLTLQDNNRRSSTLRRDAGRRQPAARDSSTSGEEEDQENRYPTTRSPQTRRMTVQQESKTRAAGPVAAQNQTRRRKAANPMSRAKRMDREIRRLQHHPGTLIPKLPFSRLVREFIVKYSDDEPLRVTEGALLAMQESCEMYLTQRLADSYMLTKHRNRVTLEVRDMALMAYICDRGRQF

[3] = molecular target: T2, FLAG-CID (N-terminally FLAG-tagged CID, wild type) (Drosophila), Q9V6Q2; details: remark: other sources report otherwise
T2 chain: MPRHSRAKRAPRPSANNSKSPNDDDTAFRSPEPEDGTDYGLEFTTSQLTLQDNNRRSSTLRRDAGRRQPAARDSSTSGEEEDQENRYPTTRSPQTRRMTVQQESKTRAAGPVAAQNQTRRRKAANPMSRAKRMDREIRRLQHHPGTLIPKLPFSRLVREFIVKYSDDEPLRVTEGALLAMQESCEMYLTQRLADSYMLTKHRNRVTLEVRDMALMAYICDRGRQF

[4] = molecular target: the molecule itself

Molecule: H3 (from UniProt P02299 1-136) (natural protein)
stoichiometry N [1]: 2

B3: FLAG-CID^D211A (natural protein, Drosophila, UniProt Q9V6Q2 1-225, looked up)
chain: MPRHSRAKRAPRPSANNSKSPNDDDTAFRSPEPEDGTDYGLEFTTSQLTLQDNNRRSSTLRRDAGRRQPAARDSSTSGEEEDQENRYPTTRSPQTRRMTVQQESKTRAAGPVAAQNQTRRRKAANPMSRAKRMDREIRRLQHHPGTLIPKLPFSRLVREFIVKYSDDEPLRVTEGALLAMQESCEMYLTQRLADSYMLTKHRNRVTLEVRAMALMAYICDRGRQF
ratio dimer:monomer after crosslinking [4]: < 3

The next lines start with the values.

stoichiometry N [2]: 2
B1: endogenous CID, Q9V6Q2 1-225 (natural protein)
chain: MPRHSRAKRAPRPSANNSKSPNDDDTAFRSPEPEDGTDYGLEFTTSQLTLQDNNRRSSTLRRDAGRRQPAARDSSTSGEEEDQENRYPTTRSPQTRRMTVQQESKTRAAGPVAAQNQTRRRKAANPMSRAKRMDREIRRLQHHPGTLIPKLPFSRLVREFIVKYSDDEPLRVTEGALLAMQESCEMYLTQRLADSYMLTKHRNRVTLEVRDMALMAYICDRGRQF

ratio dimer:monomer after crosslinking [3]: > 55
stoichiometry N [3]: 2
B2: FLAG-CID (N-terminally FLAG-tagged CID, wild type), Q9V6Q2 1-225 (natural protein)
chain: MPRHSRAKRAPRPSANNSKSPNDDDTAFRSPEPEDGTDYGLEFTTSQLTLQDNNRRSSTLRRDAGRRQPAARDSSTSGEEEDQENRYPTTRSPQTRRMTVQQESKTRAAGPVAAQNQTRRRKAANPMSRAKRMDREIRRLQHHPGTLIPKLPFSRLVREFIVKYSDDEPLRVTEGALLAMQESCEMYLTQRLADSYMLTKHRNRVTLEVRDMALMAYICDRGRQF

Source: PMC3299411 (Molecular Cell, 2011)
